The results in this text go back to paper PMC10953559, “Native Capillary Electrophoresis–Mass Spectrometry of Near 1 MDa Non‐Covalent GroEL/GroES/Substrate Protein Complexes” (Advanced Science, 2024).

The labels stand for the following.
B3: double-ring (DR) mutant GroEL 14-mer (mutant GroEL14) (natural protein, E. coli, UniProt P0A6F5 2-548, looked up)
chain: AAKDVKFGNDARVKMLRGVNVLADAVKVTLGPKGRNVVLDKSFGAPTITKDGVSVAREIELEDKFENMGAQMVKEVASKANDAAGDGTTTATVLAQAIITEGLKAVAAGMNPMDLKRGIDKAVTAAVEELKALSVPASDSKAIAQVGTISANSDETVGKLIAEAMDKVGKEGVITVEDGTGLQDELDVVEGMQFDRGYLSPYFINKPETGAVELESPFILLADKKISNIREMLPVLEAVAKAGKPLLIIAEDVEGEALATLVVNTMRGIVKVAAVKAPGFGDRRKAMLQDIATLTGGTVISEEIGMELEKATLEDLGQAKRVVINKDTTTIIDGVGEEAAIQGRVAQIRQQIEEATSDYDREKLQERVAKLAGGVAVIKVGAATEVEMKEKKARVEDALHATRAAVEEGVVAGGGVALIRVASKLADLRGQNEDQNVGIKVALRAMEAPLRQIVLNAGEEPSVVANTVKGGDGNYGYNAATEEYGNMIDMGILDPTKVTRSALQYAASVAGLMITTEAMVTDLPKNDAADLGAAGGMGGMGGMGGMC
notes: GroEL, E. coli, UniProtKB P0A6F5, with four mutations made by QuikChange from the WT GroEL gene; the measured mass fits 14 monomers with the N-terminal methionine cleaved; numbers count the first methionine; also called DR GroEL14; source: E. coli BL21 (DE3) Gold, purified from the soluble fraction (chromatography, size exclusion); copies: 14

Data set [1] concerns the molecule itself. Description: native MS; capillary electrophoresis online with native ESI-MS (CE-MS) of the oligomer; bare fused silica capillary, BGE 50 mM ammonium acetate pH 6.7, 20 kV reverse polarity, cartridge 15 °C, in-source desolvation 100 V; sample diluted in 50 mM Tris-HCl pH 7.5, 50 mM KCl, 15 mM MgCl2.
For data set [2], the target named is B3. Description: native MS; CE-MS; GroEL14 (6 µM) and GroES7 (6 µM) injected; BGE 50 mM ammonium acetate pH 6.7 with 10 to 50 µM ATPγS and 15 to 75 µM Mg2+. Conditions: both partners purified.

B1: N-acetyl neuraminic acid aldolase, native tetramer (NanA4) (enzyme, E. coli, UniProt P0A6L4 2-297, looked up)
chain: ATNLRGVMAALLTPFDQQQALDKASLRRLVQFNIQQGIDGLYVGGSTGEAFVQSLSEREQVLEIVAEEAKGKIKLIAHVGCVSTAESQQLAASAKRYGFDAVSAVTPFYYPFSFEEHCDHYRAIIDSADGLPMVVYNIPALSGVKLTLDQINTLVTLPGVGALKQTSGDLYQMEQIRREHPDLVLYNGYDEIFASGLLAGADGGIGSTYNIMGWRYQGIVKALKEGDIQTAQKLQTECNKVIDLLIKTGVFRGLKTVLHYMDVVSVPLCRKPFGPVDEKYLPELKALAQQLMQERG
notes: N-acetyl neuraminic acid aldolase NanA, E. coli, WT monomer; the theoretical mass quoted for the detected tetramer (129 849.09 Da) is that with the N-terminal methionine cleaved; also called tetrameric NanA4; source: E. coli BL21 (DE3) Gold, purified from the soluble fraction (chromatography, size exclusion)
For B1, in data set [1], the stoichiometry N (in general, a count of units in the complex or per binding partner) stood at 4 subunits.

B2: co-chaperonin GroES 7-mer (GroES7) (natural protein, E. coli, UniProt P0A6F9 1-97, looked up)
chain: MNIRPLHDRVIVKRKEVETKSAGGIVLTGSAAAKSTRGEVLAVGNGRILENGEVKPLDVKVGDIVIFNDGYGVKSEKIDNEEVLIMSESDILAIVEA
notes: GroES, E. coli, WT monomer; the measured mass fits the non-truncated form (N-terminal methionine kept); also called apo-GroES7; source: E. coli BL21 (DE3) Gold, purified from the soluble fraction (chromatography, size exclusion)
Turning to B2, the “stoichiometry N” value in data set [1] was 7 subunits; in data set [2], 1 GroES7 per GroEL14.

Consider B3, for which, in data set [1], the “stoichiometry N” value was 14 subunits.

B4: single-ring (SR) mutant GroEL 7-mer (GroEL7) (natural protein, E. coli, UniProt P0A6F5 2-548, looked up)
chain: AAKDVKFGNDARVKMLRGVNVLADAVKVTLGPKGRNVVLDKSFGAPTITKDGVSVAREIELEDKFENMGAQMVKEVASKANDAAGDGTTTATVLAQAIITEGLKAVAAGMNPMDLKRGIDKAVTAAVEELKALSVPCSDSKAIAQVGTISANSDETVGKLIAEAMDKVGKEGVITVEDGTGLQDELDVVEGMQFDRGYLSPYFINKPETGAVELESPFILLADKKISNIREMLPVLEAVAKAGKPLLIIAEDVEGEALATLVVNTMRGIVKVAAVKAPGFGDRRKAMLQDIATLTGGTVISEEIGMELEKATLEDLGQAKRVVINKDTTTIIDGVGEEAAIQGRVAQIRQQIEEATSDYDREKLQERVAKLAGGVAVIKVGAATEVEMKEKKARVEDALHATRAAVEEGVVAGGGVALIRVASKLADLRGQNEDQNVGIKVALRAMEAPLEQIVLNCGEAPAAVANTVKGGDGNYGYNAATEEYGNMIDMGILDPTKVTRSALQYAASVAGLMITTECMVTDLPKNDAADLGAAGGMGGMGGMGGMM
notes: GroEL, E. coli, UniProtKB P0A6F5, with four mutations made by QuikChange from the WT GroEL gene; theoretical mass quoted for 7 monomers with the N-terminal methionine cleaved; numbers count the first methionine; also called SR GroEL7; mutant SR; source: E. coli BL21 (DE3) Gold, purified from the soluble fraction (chromatography, size exclusion)
With B4, the “stoichiometry N” value in data set [1] was 7 subunits.
